Variants at the floor of the assay were thinned out.
B1: TPR 5TU (parent)
chain: GGAUCUUCUCGAUCUAACAAAAAAGACAAAUCUGCCACAAAGCUUGAGAGCAUCUUCGGAUGCAGAGGCGGCAGCCUUCGGUGGCGCGAUAGCGCCAACGUUCUCAACUAUGACACGCAAAACGCGUGCUCCGUUGAAUGGAGUUUAUCAUG

Variants of: B1
Assay: polymerase ribozyme fitness, log enrichment relative to wild type (log ratio); higher = more active; in vitro selection for triplet polymerase activity
How it was run: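 Fitness measures genotype enrichment against wild-type enrichment on a logarithmic scale, with inverse-variance-weighted averaging of replicates. The logarithm is base 2, and genotypes were kept only with ≥10 input reads and ≥1 read per output in Illumina sequencing. The sequenced libraries came from one triplicate in vitro selection round, including frozen incubation at −7 °C, of PCR-built, transcribed mutant libraries of each subunit of a heterodimeric triplet polymerase ribozyme.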

Variant | polymerase ribozyme fitness (log ratio)
GGAUCUUCUCGAUCUAACAAAAAAGACAAAUCUGCCACAAAGCUUGAGAGCAUCUUCGGAUGCAGAGGCGGCAGCCUUCGGUGGCGCGAUAGCGCCAACGUUAUCGACUAUGACACGCAAAACGCGUGCUCCGUUGAAUGGAGUUUAUCAUG [C103A A106G] | -0.927
GGAUCUUCUCGAUCUAACAAAAAAGACAAAUCUGCCACAAAGCUUGAGAGCAUCUUCGGAUGCAGAGGCGGCAGCCUUCGGUGGCGCGAUAGCGCCAACGUGCUCAACUAUGACACGCAAAACGCGUGCUCCGUUGAAUGGAGCUUAUCAUG [U102G U144C] | -3.06
GGAUCUUCUCGAUCUAACAAAAAAGACAAAUCUGCCACAAAGCUUGAGAGCAUCUUCGGAUGCAGAGGCGGCAGCCUUCGGUGGCGCGAUAGCGCCAACGUUCUCCACUAUGACUCGCACAACGCGUGCUCCGUUCAAUGGAGUUUAUCAUG [A106C A115U A120C G136C] | -3.11
GGAUCUUCUCGAUCUAACAAAAAAGACAAAUCUGCCACAAAGCUUGAGAGCAUCUUCGGAUGCAGAGGCGGCAGCCUUCGGUGGCGCGAUAGCGCCAACGUUCUCGACUAUGACACGAAAAACGCGUGCUCCGUUGAAUGGAGUUUAUCAUG [A106G C118A] | -0.47
GGAUCUUCUCGAUCUAACAAAAAAGACAAAUCUGCCACAAAGCUUGAGAGCAUCUUCGGAUGCAGAGGCGGCAGCCUUCGGUGGCGCGAUAGCGCCAACGUUUUCAACUAUGACACGCAAAACGCGUACUCCGUUGAAUGGAGUUUAUCAUG [C103U G128A] | -3.93
GGAUCUUCUCGAUCUAACAAAAAAGACAAAUCUGCCACAAAGCUUGAGAGCAUCUUCGGAUGCAGAGGCGGCAGCCUUCGGUGGCGCGAUAGCGCCAACGUUCUAAACUAUGACACGCAAAACGCGUGCUCCGUUGAAUGGAGUUUAUCCUG [C105A A150C] | -3.93
GGAUCUUCUCGAUCUAACAAAAAAGACAAAUCUGCCACAAAGCUUGAGAGCAUCUUCGGAUGCAGAGGCGGCAGCCUUCGGUGGCGCGAUAGCGCCAACGUUCUAAACUAUGACACGCAGAAAGCGUGCUCUGUUCAAUGGAGUUUAUCAUG [C105A A120G C123A C132U G136C] | -3.32
GGAUCUUCUCGAUCUAACAAAAAAGACAAAUCUGCCACAAAGCUUGAGAGCAUCUUCGGAUGCAGAGGCGGCAGCCUUCGGUGGCGCGAUAGCGCCAACGUUCUCGACUAUGACACGCAAAACGCGUGCUCCGUUGAAUGUAGUUUAUCAUG [A106G G141U] | 2.01
GGAUCUUCUCGAUCUAACAAAAAAGACAAAUCUGCCACAAAGCUUGAGAGCAUCUUCGGAUGCAGAGGCGGCAGCCUUCGGUGGCGCGAUAGCGCCAACGUUCUGAACUAUGACAUGCAAAACGCGUGCUCCGUUGAAUGGAGUAUAUCAUG [C105G C116U U145A] | -0.747
GGAUCUUCUCGAUCUAACAAAAAAGACAAAUCUGCCACAAAGCUUGAGAGCAUCUUCGGAUGCAGAGGCGGCAGCCUUCGGUGGCGCGAUAGCGCCAACGUUCUGAACUAUGACACGCAAAACGCGUGCUCAGUUGAAUGGAGUUUAUCAUG [C105G C132A] | -3.96
GGAUCUUCUCGAUCUAACAAAAAAGACAAAUCUGCCACAAAGCUUGAGAGCAUCUUCGGAUGCAGAGGCGGCAGCCUUCGGUGGCGCGAUAGCGCCAACGUUAUCAACUAUGACACGCAAAACGCGUGCUCCGUUGAACGGAGUUUAUCAUG [C103A U139C] | -3.89
GGAUCUUCUCGAUCUAACAAAAAAGACAAAUCUGCCACAAAGCUUGAGAGCAUCUUCGGAUGCAGAGGCGGCAGCCUUCGGUGGCGCGAUAGCGCCAACGUUCUUAACUAUGACACGCAAAACGCGUGCUCCGUUGAAUGGAUUUUAUCAUG [C105U G143U] | -2.41
GGAUCUUCUCGAUCUAACAAAAAAGACAAAUCUGCCACAAAGCUUGAGAGCAUCUUCGGAUGCAGAGGCGGCAGCCUUCGGUGGCGCGAUAGCGCCAACGUUCUCGACUAUGACACGCCAAACGUGUGCUCCGUUGAAUGGAGUUUAUCAUG [A106G A119C C125U] | -0.389
GGAUCUUCUCGAUCUAACAAAAAAGACAAAUCUGCCACAAAGCUUGAGAGCAUCUUCGGAUGCAGAGGCGGCAGCCUUCGGUGGCGCGAUAGCGCCAACGUUCUUAACUAUGACACGCAAAACGCGUGCAGCGUUGAAUUGAGUUUAUCAUG [C105U U130A C131G G140U] | -3.96
GGAUCUUCUCGAUCUAACAAAAAAGACAAAUCUGCCACAAAGCUUGAGAGCAUCUUCGGAUGCAGAGGCGGCAGCCUUCGGUGGCGCGAUAGCGCCAACGUUCGCAACUAUGACACGCAAAACGCGUGCUCCGUUGAAUGGAGUGUAUCAUG [U104G U145G] | -0.945
GGAUCUUCUCGAUCUAACAAAAAAGACAAAUCUGCCACAAAGCUUGAGAGCAUCUUCGGAUGCAGAGGCGGCAGCCUUCGGUGGCGCGAUAGCGCCAACGUUCUUAACUAUGACACGCAAAACACGUGCUCCGUUGAAUGGAGUUUAUCAUG [C105U G124A] | 0.519
GGAUCUUCUCGAUCUAACAAAAAAGACAAAUCUGCCACAAAGCUUGAGAGCAUCUUCGGAUGCAGAGGCGGCAGCCUUCGGUGGCGCGAUAGCGCCAACGUUCGCAACUAUGACACGGAAAACGCGUGCUCCGUUGAAUGGAGUUUAUCAUG [U104G C118G] | -1.89
GGAUCUUCUCGAUCUAACAAAAAAGACAAAUCUGCCACAAAGCUUGAGAGCAUCUUCGGAUGCAGAGGCGGCAGCCUUCGGUGGCGCGAUAGCGCCAACGUUCGCAACUAUGACACGCAGAACGCGUGCUCCGUUGAAUGGAGUUUAUCAUG [U104G A120G] | -0.0889
GGAUCUUCUCGAUCUAACAAAAAAGACAAAUCUGCCACAAAGCUUGAGAGCAUCUUCGGAUGCAGAGGCGGCAGCCUUCGGUGGCGCGAUAGCGCCAACGUGCUCAACUAUGACACGCAAAACGCGUGCUCCGUUGAAUGGAGUUGAUCAUG [U102G U146G] | -4.17
